Measured values published in patent US12466853B2, “Selective targeting of apoptosis proteins by structurally-stabilized and/or cysteine-reactive NOXA peptides” (priority 2017, dated 2025).
Numbering of substitutions follows the chain as printed.

Experiments:
full-length BFL-1 = molecular target: T1, full-length BFL-1 (Homo sapiens, UniProt Q16548); assay: Covalent crosslinking to full-length BFL-1, recombinant and HA-tagged expressed in 293T cells; type: binding; settings: recombinant and expressed in 293T cells; somewhat reduced efficiency vs C-terminally truncated species
T1 construct: Recombinant full-length BFL-1 (aa-175) containing an N-terminal hexahistidine tag; made in house
T1 sequence (Q16548 1-175): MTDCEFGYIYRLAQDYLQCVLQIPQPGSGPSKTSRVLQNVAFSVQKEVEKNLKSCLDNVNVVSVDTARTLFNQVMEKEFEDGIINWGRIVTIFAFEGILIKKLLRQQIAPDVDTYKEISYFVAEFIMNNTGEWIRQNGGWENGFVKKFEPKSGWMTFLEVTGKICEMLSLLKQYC
Text: We confirmed that both of our lead constructs could covalently crosslink to full-length BFL-1 protein, which bears a C-terminal helix that could potentially compete with D-NA-NOXA SAHBs for interaction at the canonical BH3-binding pocket in cancer cells. We generated recombinant full-length BFL-1 and expressed HA-tagged full-length BFL-1 in 293T cells, and then conducted crosslinking analyses in vitro and in treated cells, respectively.
Recombinant full-length BFL-1 (aa-175) containing an N-terminal hexahistidine tag was cloned into the PTYB1 vector (New England Biolabs) and purified as above except for the addition of a chitin affinity chromatography and DTT elution step. Protein purity and identity was confirmed by Coomassie staining and western blot analysis using a mouse monoclonal anti-His6 tag antibody (Abcam).
His-BFL-1ΔC C4S/C19S protein (5 μM) was pre-treated with 10 mM DTT in 50 mM Tris (pH 8.0) and 100 mM NaCl for 30 min at room temperature (final volume […]) and then combined with a 10:1 molar ratio of cysteine-reactive NOXA SAHB for an additional 1-hr incubation at room temperature. The samples were then boiled in 3× loading buffer with DTT and electrophoresed on 12% Bis-Tris gel, then subjected to Coomassie staining.

[1] = molecular target: T2, BFL-1ΔC C4S/C19S/C55S / FITC-BID BH3 (Homo sapiens, UniProt Q16548, C19S/C4S/C55S); assay: Competitive fluorescence polarization binding assay, BFL-1ΔC C4S/C19S/C55S
T2 construct: Recombinant anti-apoptotic BFL-1ΔC (aa 1-151) and its cysteine to serine mutants were cloned into PET17b; hexahistidine (N); made in house; host or cells: Escherichia coli LOBSTR BL21(DE3)
T2 sequence (Q16548 1-151 C4S/C19S/C55S): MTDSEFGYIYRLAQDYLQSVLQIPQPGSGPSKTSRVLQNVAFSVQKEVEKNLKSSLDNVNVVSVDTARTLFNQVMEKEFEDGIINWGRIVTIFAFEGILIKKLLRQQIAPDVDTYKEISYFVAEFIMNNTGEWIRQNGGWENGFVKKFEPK
Experimental: (§1) Fluorescence polarization (FP) assays were performed as previously described (Pitter et al., 2008 (supra)). Briefly, direct binding curves were first generated by FITC-BID BH3 (25 nM) with serial dilutions of anti-apoptotic protein, and FP was measured at 5 min on a SpectraMax M5 microplate reader (Molecular Devices). For competition assays, a serial dilution of acetylated or warhead-bearing NOXA SAHB was added to the indicated recombinant protein at ˜EC75 concentration, as determined by the direct binding assay. FITC-BID BH3 (25 nM) was then added and fluorescence polarization was measured at equilibrium. IC50 values were calculated by nonlinear regression analysis of competitive binding curves using PRISM software (GraphPad).

His-BFL-1ΔC = molecular target: T3, His-BFL-1ΔC (Homo sapiens, UniProt Q16548); assay: Streptavidin pulldown from recombinant protein mixture, BFL-1; type: binding; settings: equimolar mixture of recombinant MCL-1, BCL-XL, BFL-1 and biotinylated SAHB, silver stain
T3 construct: Recombinant anti-apoptotic BFL-1ΔC (aa 1-151) and its cysteine to serine mutants were cloned into PET17b; made in house; host or cells: Escherichia coli LOBSTR BL21(DE3)
T3 sequence (Q16548 1-151): T2 sequence (Q16548 1-151 C4S/C19S/C55S) with S4C, S19C, S55C
Experimental: WT His-BFL-1ΔC, BCL-XLΔC (tagless), and GST-MCL-1ΔNΔC (1 μM each) were combined and incubated with 3 mM DTT in PBS for thirty minutes at room temperature. Mixtures were treated with vehicle or the indicated C-terminally biotinylated NOXA SAHB (1 μM) for four hours and were then added to 30 μL PBS-washed high-capacity streptavidin (SA) agarose beads (Thermo Fisher Pierce) and incubated with rotation at room temperature for two hours. The beads were then washed three times with NP-40 lysis buffer (1% NP-40, 50 mM Tris pH 8, 100 mM NaCl, 2.5 mM MgCl2) and three times with PBS. To elute bound protein, beads were boiled for ten minutes with 10% SDS containing 10 mg/mL biotin. After elution, samples were boiled with 3×LDS and 2M DTT for twenty minutes. Gel electrophoresis using a 12% Bis-Tris gel was conducted on inputs (2%) and eluates (5 μL) and gels were developed using the Pierce silver staining kit (Thermo Fisher).

[2] = molecular target: T4, BFL-1ΔC C4S/C19S / FITC-BID BH3 (Homo sapiens, UniProt Q16548, C19S/C4S); assay: Competitive fluorescence polarization binding assay, BFL-1ΔC C4S/C19S; settings: fluorescence polarization competition
T4 construct: Recombinant anti-apoptotic BFL-1ΔC (aa 1-151) and its cysteine to serine mutants were cloned into PET17b; made in house; host or cells: Escherichia coli LOBSTR BL21(DE3)
T4 sequence (Q16548 1-151 C4S/C19S): T2 sequence (Q16548 1-151 C4S/C19S/C55S) with S55C
Experimental: as §1

BCL-XLΔC / FITC-BID BH3 = molecular target: T5, BCL-XLΔC / FITC-BID BH3 (Homo sapiens, UniProt Q07817); assay: Competitive fluorescence polarization binding assay, BCL-XLΔC
T5 construct: Recombinant anti-apoptotic BCL-XLΔC (aa 1-212) and MCL-1ΔNΔC (aa 172-329); GST (N, cleaved yes); made in house; host or cells: Escherichia coli BL21(DE3)
Experimental: as §1

MV4;11 cells = assay: Cell viability (CellTiter-Glo) and CalcuSyn synergy, MV4;11; settings: MV4;11 cells (not dependent on BFL-1, dependent on MCL-1)
Experimental: Cell viability and caspase-3/7 activation was measured using CellTiter-Glo and Caspase-Glo 3/7 chemiluminescence reagents (Promega), respectively, and luminescence was detected by a Spectramax M5 microplate reader. Synergy of drug interactions was calculated using the CalcuSyn software (Biosoft).

T5 sequence (Q07817 1-212, stated change not applied): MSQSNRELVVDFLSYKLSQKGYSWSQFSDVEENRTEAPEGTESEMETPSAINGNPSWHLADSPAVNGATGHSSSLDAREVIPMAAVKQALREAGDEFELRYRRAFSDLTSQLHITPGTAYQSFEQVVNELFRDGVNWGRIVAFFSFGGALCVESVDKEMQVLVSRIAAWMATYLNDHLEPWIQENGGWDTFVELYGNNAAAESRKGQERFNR

JAT8LREFGDXLNFRQ [D-NA-NOXA-15 R31E]
covalent crosslinking to full-length BFL-1 (full-length BFL-1): covalent crosslinking to recombinant and expressed full-length BFL-1 | competition for FITC-BID BH3 binding to BFL-1ΔC C4S/C19S/C55S [1]: neither D-NA- nor Ac-NOXA15 R31E competes | BFL-1 binding / pull down (His-BFL-1ΔC): striking competitive advantage for BFL-1 targeting over its acetylated counterpart | disruption of BFL-1ΔC C4S/C19S / FITC-BID BH3 interaction [2]: displays the ability to disrupt the interaction | competition for FITC-BID BH3 binding to BCL-XLΔC (BCL-XLΔC / FITC-BID BH3): neither Ac- nor D-NA-NOXA-15 R31E is able to compete | cytotoxicity, single agent (MV4;11 cells): essentially insensitive
